# What was measured:
# [1] = molecular target: the molecule itself; test: cross-linking; cells incubated with 2 mM DSS for 30 min at 25 C, quenched with 1 M Tris-HCl pH 7.4; western blot; control and DJ-1 KD
# [2] = molecular target: the molecule itself; test: not stated; HEK293T cells with DJ-1 overexpression (Supplementary Fig. 6j)
Protein,stoichiometry N [1],stoichiometry N [2]
"S-adenosyl homocysteine hydrolase (enzyme, human (endogenous in H1299), UniProt P23526 1-432, looked up, S-adenosyl homocysteine hydrolase (SAHH) of H1299 cells; also called SAHH; source: H1299 cell lysate (control KD and DJ-1 KD)) MSDKLPYKVADIGLAAWGRKALDIAENEMPGLMRMRERYSASKPLKGARIAGCLHMTVETAVLIETLVTLGAEVQWSSCNIFSTQDHAAAAIAKAGIPVYAWKGETDEEYLWCIEQTLYFKDGPLNMILDDGGDLTNLIHTKYPQLLPGIRGISEETTTGVHNLYKMMANGILKVPAINVNDSVTKSKFDNLYGCRESLIDGIKRATDVMIAGKVAVVAGYGDVGKGCAQALRGFGARVIITEIDPINALQAAMEGYEVTTMDEACQEGNIFVTTTGCIDIILGRHFEQMKDDAIVCNIGHFDVEIDVKWLNENAVEKVNIKPQVDRYRLKNGRRIILLAEGRLVNLGCAMGHPSFVMSNSFTNQVMAQIELWTHPDKYPVGVHFLPKKLDEAVAEAHLGKLNVKLTKLTEKQAQYLGMSCDGPFKPDHYRY",4,
"SAHH in HEK293T cells (enzyme, UniProt P23526 1-432, looked up, S-adenosyl homocysteine hydrolase (SAHH) in HEK293T cells with DJ-1 overexpression; source: HEK293T cells) MSDKLPYKVADIGLAAWGRKALDIAENEMPGLMRMRERYSASKPLKGARIAGCLHMTVETAVLIETLVTLGAEVQWSSCNIFSTQDHAAAAIAKAGIPVYAWKGETDEEYLWCIEQTLYFKDGPLNMILDDGGDLTNLIHTKYPQLLPGIRGISEETTTGVHNLYKMMANGILKVPAINVNDSVTKSKFDNLYGCRESLIDGIKRATDVMIAGKVAVVAGYGDVGKGCAQALRGFGARVIITEIDPINALQAAMEGYEVTTMDEACQEGNIFVTTTGCIDIILGRHFEQMKDDAIVCNIGHFDVEIDVKWLNENAVEKVNIKPQVDRYRLKNGRRIILLAEGRLVNLGCAMGHPSFVMSNSFTNQVMAQIELWTHPDKYPVGVHFLPKKLDEAVAEAHLGKLNVKLTKLTEKQAQYLGMSCDGPFKPDHYRY",,4

# Reference: PMC7060199, “DJ-1 suppresses ferroptosis through preserving the activity of S-adenosyl homocysteine hydrolase” (Nature Communications, 2020)
